The record followed here is the PETadex activity labels (doi:10.1021/acsomega.4c04843).

Substrate in series [1]: pNPB
As to the kind of experiment: Proxy for plastic degradation [p-nitrophenol (pNP) release]. The following applies: pH 7.4.

Substrate in series [2]: PET
Kind of series: Proxy for plastic degradation [Released monomer concentration (HPLC/LC-MS) (TPA)]. The following applies: pH 8.

B1: unnamed (protein)
chain: MFRFHIVSALLTLFIAVPSQAHDVGQREIKISGAEPGRNLEVSVWYPAAIDGKATLIGDNIIFKGAPAVIDATPEKGSFPLLVMSHGSGGRAQGMAWLATELVKAGIIVAAPNHPGTTSGDSTPQDTPKIWQRTGDLSAVIDTMTTDPAWSGIIDKNKISVLGFSLGGAAAMEIAGARANLEAYARYCDTYGKWDCAWYAGGIGYRDDKQIKVDKVDLRSVDKSRFEQSNLDRRIASAIMIDPGLAQAYDAQSLASISIPMSFINLGEVETIPTGVVADKLASITPQGTYVTVAGATHFSFLPECKKGAADRLKSAGEVDPICSDDARRPRADIHADITKLVLKALQSMPKT
B1: the entries for the “Proxy for plastic degradation” value in series [1] (37 °C), in series [1] (42 °C) and in series [2] were 255 U/mL, 330 U/mL and 0.8 mM/mg, respectively.

B2: unnamed (protein)
chain: MFRFHIVSALLTLFIAVPSQAHDVGQREIKISGAEPGRNLEVSVWYPAAIDGKATLIGDNIIFKGAPAVIDATPEKGSFPLLVMSHGSGGRAQGMAWLATELVKAGIIVAAPNHPGTTSGDSTPQDTPKIWQRTGDLSAVIDTMTTDPAWSGIIDKNKISVLGFSMGGAAAMEIAGARANLEAYARYCDTYGKWDCAWYAGGIGYRDDKQIKVDKVDLRSVDKSRFEQSNLDRRIASAIMIDPGLAQAYDAQSLASISIPMSFINLGEVETIPTGVVADKLASITPQGTYVTVAGATHWSFLPECKKGAADRLKSAGEVDPICSDDARRPRADIHADITKLVLKALQSMPKT
Turning to B2, the “Proxy for plastic degradation” value in series [2] came to 2.3 mM/mg.

B3: unnamed (protein)
chain: MFRFHIVSALLTLFIAVPSQAHDVGQREIKISGAEPGRNLEVSVWYPAAIDGKATLIGDNIIFKGAPAVIDATPEKGSFPLLVMSHGSGGRAQGMAWLATELVKAGIIVAAPNHPGTTSGDSTPQDTPKIWQRTGDLSAVIDTMTTDPAWSGIIDKNKISVLGFSMGGAAAMEIAGARANLEAYARYCDTYGKWDCAWYAGGIGYRDDKQIKVDKVDLRSVDKSRFEQSNLDRRIASAIMIDPGLAQAYDAQSLASISIPMSFINLGEVETIPTGVVADKLASITPQGTYVTVDGATHFSFLPECKKGAADRLKSAGEVDPICSDDARRPRADIHADITKLVLKALQSMPKT
For the protein B3, the “Proxy for plastic degradation” value in series [2] is 2.6 mM/mg.

B4: unnamed (protein)
chain: MFRFHIVSALLTLFIAVPSQAHDVGQREIKISGAEPGRNLEVSVWYPAAIDGKATLIGDNIIFKGAPAVIDATPEKGSFPLLVMSHGSGGRAQGMAWLATELVKAGIIVAAPNHPGTTSGDSTPQDTPKIWQRTGDLSAVIDTMTTDPAWSGIIDKNKISVLGFSMGGAAAMEIAGARANLEAYARYCDTYGKWDCAWYAGGIGYRDDKQIKVDKVDLRSVDKSRFEQSNLDRRIASAIMIDPGLAQAYDAQSLASISIPMSFINLGEVETIPTGVVADKLASITPQGTYVTVAGATHISFLPECKKGAADRLKSAGEVDPICSDDARRPRADIHADITKLVLKALQSMPKT
As for B4, the “Proxy for plastic degradation” value in series [2] was 1.5 mM/mg.

B5: unnamed (protein)
chain: MMGYITAHDGTNLYVEDVGFGEPIVFLHGWPANNNMFEYQKNALVEAGYRYIGIDFRGYGKSDAPATGYDYETMASDVHMVVYGLGLKNFTLVGFSMGGAIAVRYAADYKEDGLNKLVLAGAAAPIFTQRADYPYGMTTDEVDALIDDTRADRPKMLEGFGEIFFEKEHSKPMQNWFHHLALVASSHGTIASAQALRDEDLRDALPKIDVETLIIHGVHDKICPFAFAEQMEQGISNARIERFEESGHGTVLDEREKFNDTLLQFVQ
For the protein B5, the “Proxy for plastic degradation” value in series [1] (37 °C) turned out to be 245 U/mL; in series [1] (42 °C), 300 U/mL; in series [2] it was 3.7 mM/mg.

B6: unnamed (protein)
chain: MSNPYQRGPNPTRSALTADGPFSVATYTVSRLSVSGFGGGVIYYPTGTSLTFGGIAMSPGYTADASSLAWLGRRLASHGFVVLVINTNSRFDGPDSRASQLSAALNYLRTSSPSAVRARLDANRLAVAGHSMGGGGTLRIAEQNPSLKAAVPLTPWHTDKTFNTSVPVLIVGAEADTVAPVSQHAIPFYQNLPSTTPKVYVELCNASHIAPNSNNAAISVYTISWMKLWVDNDTRYRQFLCNVNDPALCDFRTNNRHCQLEHHHHHH
Turning to B6, the “Proxy for plastic degradation” value in series [2] came out at 3 mM/mg.
